Source: the supplement of paper PMC10724198
± gives the standard deviation of the averaged measurements.

What follows are sequences tested on Saccharomyces cerevisiae (assay: protein stability index of tFT-peptide fusion (C-terminal peptide) (PSI (0-1 scale)); higher = more stable (slower turnover)). Conditions: genetic background: doa10 deletion; temperature: 30 C.
Description: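 MPS profiling in S. cerevisiae of the tFT-X12 degron library: putative degron peptides plus stable controls, 12 aa, fused to the C-terminus of a sfGFP-mCherry timer. Cells are FACS-sorted into 8 mCherry/sfGFP bins and deep-sequenced. PSI runs from 0 (unstable) to 1 (stable). Backgrounds are wild type, das1Δ and doa10Δ at 30 °C, and wild type, das1Δ, cdc34-1 and cdc53-1 at 37 °C; 2-3 technical replicates each.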
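Note: PSI is a weighted mean of sequencing reads over stability bins, variants kept only with over 10 reads, mCherry proximal and sfGFP distal, peptide attached via GGGS linker.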

Row | Sequence | protein stability index
1 | FPWGRIFLRLRT | 0.5445 ± 0.0029
2 | FQFTLWRTLLCS | 0.113 ± 0.015
3 | FQLGLVFCVCSG | 0.244 ± 0.0076
4 | FQWILYIAKRVV | 0.259 ± 0.059
5 | FRCPHAVKLVLV | 0.1947 ± 0.0014
6 | FRFSSLLYILLS | 0.0923 ± 0.012
7 | FRTTGQAPPSKP | 0.64 ± 0.038
8 | FSLRLFLVLALS | 0.123 ± 0.013
9 | FSVTTLTILCLR | 0.49 ± 0.061
10 | FSYLSFLPSLAA | 0.442 ± 0.0053
11 | FTFPLPPSLLLV | 0.2603 ± 0.00082
12 | FTGLCQGLWLGW | 0.684 ± 0.039
13 | FVCLCGFLQVLS | 0.3687 ± 0.0013
14 | FVLWWGWSWLVV | 0.152 ± 0.0023
15 | FVRVFLRLGVVS | 0.175 ± 0.0045
16 | FVSVWVFLVSSF | 0.194 ± 0.017
17 | FVVQSLNQMRLN | 0.354 ± 0.0096
18 | FVYFLLVVCFAF | 0.157 ± 0.0085
19 | FWESHVLPYRLL | 0.19 ± 0.008
20 | FWFLWAKMLLSC | 0.0958 ± 0.02
21 | FWWVGCGWCRWG | 0.2446 ± 0.0022
22 | FYPFHVFCLLIF | 0.18 ± 0.023
23 | GAICCFCCYLVF | 0.463 ± 0.025
24 | GALWPGALRFLN | 0.101 ± 0.014
25 | GCLGYTLSCFTY | 0.519 ± 0.019
26 | GCVVLNTVAFIC | 0.108 ± 0.0055

Row | Sequence | protein stability index
27 | GELDVRKLLKYF | 0.154 ± 0.034
28 | GFAFFIGLSFAF | 0.465 ± 0.0074
29 | GFFCVWSLLFFN | 0.218 ± 0.031
30 | GFFLCTCIRFWV | 0.2478 ± 0.0011
31 | GFLRTVHFLLLG | 0.225 ± 0.0044
32 | GFNIFFFFFFFV | 0.281 ± 0.0099
33 | GFPFLCSFLLAS | 0.253 ± 0.005
34 | GFPFLFILYFLC | 0.111 ± 0.0087
35 | GGGAGVVWVRLG | 0.112 ± 0.0043
36 | GGGVGGAVVLFW | 0.528 ± 0.01
37 | GGGWCVWMVWFG | 0.23 ± 0.006
38 | GGIRLRVRFFVI | 0.158 ± 0.0059
39 | GGSGGVSWRRVV | 0.223 ± 0.019
40 | GGSIKRFVILVL | 0.259 ± 0.006
41 | GGSKIGFTVGGG | 0.642 ± 0.018
42 | GGTGGAGSRGQI | 0.644 ± 0.0041
43 | GGWFFWVGAWVV | 0.102 ± 0.018
44 | GGWRVLHAWVAV | 0.278 ± 0.0058
45 | GGYIINRWRTKN | 0.113 ± 0.026
46 | GILPIYNIISRL | 0.568 ± 0.016
47 | GITSFFSWSFLS | 0.169 ± 0.015
48 | GKWFSWNAIWIR | 0.6114 ± 0.0025
49 | GLCGVCLVRCVG | 0.211 ± 0.0051
50 | GLGMVIIGLLIG | 0.191 ± 0.0035
51 | GLLGRCPVVVFG | 0.216 ± 0.013
52 | GLRFFVSSLLCR | 0.377 ± 0.0095

Row | Sequence | protein stability index
53 | GLVCPWLIVRFV | 0.161 ± 0.022
54 | GLVWSKCFFIVG | 0.2675 ± 0.0018
55 | GLWLRVCIVAWV | 0.0424 ± 0.011
56 | GLYLVFMGFVPC | 0.3169 ± 0.0022
57 | GNIHHTRFLALL | 0.485 ± 0.017
58 | GNSAGSVGGGRF | 0.638 ± 0.024
59 | GPILVWVMADWG | 0.293 ± 0.0078
60 | GPVRTEFWLYVW | 0.57 ± 0.031
61 | GQRIKWGPIYLT | 0.397 ± 0.034
62 | GREGETGSKAGR | 0.64 ± 0.027
63 | GRGGLRVVVWLV | 0.11 ± 0.017
64 | GRGLGHWWTVRT | 0.689 ± 0.013
65 | GRVAIFTLLWRI | 0.469 ± 0.052
66 | GSLHWVMVFAVP | 0.493 ± 0.033
67 | GSVCVVCWELVV | 0.26 ± 0.0046
68 | GSVGFICCVVVV | 0.268 ± 0.017
69 | GTETWVFVLLKF | 0.302 ± 0.026
70 | GVFFHFFFLFCF | 0.3913 ± 0.0038
71 | GVSRRWFSLRCI | 0.125 ± 0.009
72 | GVVCCVVVGRMG | 0.445 ± 0.032
73 | GVVRKLCHWVVA | 0.286 ± 0.0046
74 | GWVQFVKAAVLF | 0.197 ± 0.0058
75 | GYACSIFYLRCV | 0.218 ± 0.0038
76 | GYRFSILSILRV | 0.488 ± 0.017
77 | HANPGTFGPCTR | 0.658 ± 0.019
78 | HGVYSVLRFFFC | 0.329 ± 0.0035

Same assay, conditions: genetic background: wild type; temperature: 30 C

Row | Sequence | protein stability index
79 | FPWGRIFLRLRT | 0.441 ± 0.015
80 | FQFTLWRTLLCS | 0.137 ± 0.021
81 | FQLGLVFCVCSG | 0.258 ± 0.026
82 | FQWILYIAKRVV | 0.261 ± 0.044
83 | FRCPHAVKLVLV | 0.214 ± 0.018
84 | FRFSSLLYILLS | 0.0651 ± 0.018
85 | FRTTGQAPPSKP | 0.6444 ± 0.0056
86 | FSLRLFLVLALS | 0.154 ± 0.028
87 | FSVTTLTILCLR | 0.277 ± 0.02
88 | FSYLSFLPSLAA | 0.468 ± 0.0066
89 | FTFPLPPSLLLV | 0.233 ± 0.028
90 | FTGLCQGLWLGW | 0.649 ± 0.013
91 | FVCLCGFLQVLS | 0.411 ± 0.028
92 | FVLWWGWSWLVV | 0.16 ± 0.016
93 | FVRVFLRLGVVS | 0.177 ± 0.022
94 | FVSVWVFLVSSF | 0.225 ± 0.035
95 | FVVQSLNQMRLN | 0.379 ± 0.025
96 | FVYFLLVVCFAF | 0.166 ± 0.021
97 | FWESHVLPYRLL | 0.223 ± 0.018
98 | FWFLWAKMLLSC | 0.109 ± 0.027
99 | FWWVGCGWCRWG | 0.269 ± 0.025
100 | FYPFHVFCLLIF | 0.162 ± 0.028
101 | GAICCFCCYLVF | 0.47 ± 0.014
102 | GALWPGALRFLN | 0.104 ± 0.015
103 | GCLGYTLSCFTY | 0.51 ± 0.027
104 | GCVVLNTVAFIC | 0.127 ± 0.019

Row | Sequence | protein stability index
105 | GELDVRKLLKYF | 0.172 ± 0.036
106 | GFAFFIGLSFAF | 0.461 ± 0.01
107 | GFFCVWSLLFFN | 0.187 ± 0.021
108 | GFFLCTCIRFWV | 0.254 ± 0.028
109 | GFLRTVHFLLLG | 0.251 ± 0.035
110 | GFNIFFFFFFFV | 0.173 ± 0.006
111 | GFPFLCSFLLAS | 0.291 ± 0.026
112 | GFPFLFILYFLC | 0.0763 ± 0.036
113 | GGGAGVVWVRLG | 0.12 ± 0.027
114 | GGGVGGAVVLFW | 0.565 ± 0.027
115 | GGGWCVWMVWFG | 0.261 ± 0.027
116 | GGIRLRVRFFVI | 0.168 ± 0.023
117 | GGSGGVSWRRVV | 0.264 ± 0.018
118 | GGSIKRFVILVL | 0.304 ± 0.024
119 | GGSKIGFTVGGG | 0.664 ± 0.02
120 | GGTGGAGSRGQI | 0.657 ± 0.011
121 | GGWFFWVGAWVV | 0.121 ± 0.025
122 | GGWRVLHAWVAV | 0.328 ± 0.023
123 | GGYIINRWRTKN | 0.142 ± 0.021
124 | GILPIYNIISRL | 0.547 ± 0.1
125 | GITSFFSWSFLS | 0.172 ± 0.0065
126 | GKWFSWNAIWIR | 0.0762 ± 0.029
127 | GLCGVCLVRCVG | 0.249 ± 0.036
128 | GLGMVIIGLLIG | 0.227 ± 0.01
129 | GLLGRCPVVVFG | 0.285 ± 0.026
130 | GLRFFVSSLLCR | 0.388 ± 0.02

Row | Sequence | protein stability index
131 | GLVCPWLIVRFV | 0.136 ± 0.0078
132 | GLVWSKCFFIVG | 0.295 ± 0.022
133 | GLWLRVCIVAWV | 0.0551 ± 0.013
134 | GLYLVFMGFVPC | 0.325 ± 0.034
135 | GNIHHTRFLALL | 0.498 ± 0.013
136 | GNSAGSVGGGRF | 0.652 ± 0.014
137 | GPILVWVMADWG | 0.337 ± 0.018
138 | GPVRTEFWLYVW | 0.583 ± 0.049
139 | GQRIKWGPIYLT | 0.22 ± 0.027
140 | GREGETGSKAGR | 0.669 ± 0.021
141 | GRGGLRVVVWLV | 0.123 ± 0.022
142 | GRGLGHWWTVRT | 0.704 ± 0.0092
143 | GRVAIFTLLWRI | 0.252 ± 0.032
144 | GSLHWVMVFAVP | 0.487 ± 0.016
145 | GSVCVVCWELVV | 0.293 ± 0.017
146 | GSVGFICCVVVV | 0.298 ± 0.031
147 | GTETWVFVLLKF | 0.165 ± 0.013
148 | GVFFHFFFLFCF | 0.297 ± 0.028
149 | GVSRRWFSLRCI | 0.15 ± 0.011
150 | GVVCCVVVGRMG | 0.451 ± 0.013
151 | GVVRKLCHWVVA | 0.322 ± 0.016
152 | GWVQFVKAAVLF | 0.211 ± 0.043
153 | GYACSIFYLRCV | 0.23 ± 0.021
154 | GYRFSILSILRV | 0.47 ± 0.023
155 | HANPGTFGPCTR | 0.6499 ± 0.0061
156 | HGVYSVLRFFFC | 0.365 ± 0.017
